Measured values: PMC10594996

Assays:
[1] = target: NHP IgG (rhesus macaque serum IgG) (rhesus macaque (Macaca mulatta)); assay: SPR; BIAcore X100; Protein A immobilised on a CM5 chip ([…]
human IgG (human) = assay: SPR; BIAcore X100; Protein A immobilised on a CM5 chip (target 5000 RU); human or NHP IgG at 20 µg/ml captured on the test flow cell to 500 RU; various concentrations of recombinant human CD64 flowed at 10 µl/min; control flow cell with Protein A only; regeneration with 10 mM glycine pH 2.0

recombinant human CD64 receptor (from UniProt P12314 16-374)
Kd [1]: 162 nM
Kd (human IgG (human)): 21.9 nM
